Patent US20240101645A1 (HENRY M JACKSON FOUNDATION FOR THE ADVANCEMENT OF MILITARY …, published 2024)
Substitutions are numbered along the chain they refer to.

B1: COV_1071 (antibody, V domains shown)
VH: QVHLVQSGAEVQKPGASVKISCKASGDTFSESYVHWVRQAPGSGLEWMGIINTRDGDTNYTHQFQDRVMMTTDTSTSTVFLELYSLTSEDTAVYYCARAPDQYFDYWGQGSPVTVSA
VL: DIVMTQTPLSSPVTLGQPASISCRSSESLVHSNGNTYLSWLQQRPGQPPKLLIYRVSNRFSGVPDRFSGSGAGTEFTLKISRVEAEDVGVYYCMQARHFPRTFGQGTKVEIKR
B2: COV_1076 (antibody, V domains shown)
VH: QVQLVESGGGLVKPGGSLRLSCAASGFTFSEYSMSWIRQAPGKGLEWVSFIGGSGDYTNYADSVKGRFTISRDNAKNLLYLQMNTLRVEDTAVYYCARRGSANCGDDWWGQGTLVTVSS
VL: DIVMTQSPDSLAVSLGERATINCKSSHGVLYRSNNKDHLAWYQQKPGHPPKLLIYWASIRESGVPDRFSGSGSGTDFTLTISGLQAEDVAVYYCQQYYGNPTFGGGTKVEIKR
B3: COV_1082 (antibody, V domains shown)
VH: EVQLVESGGGLVQPGGSLRLSCAASGFIFNIHGMNWFRQAPGKGLEWISHIGTSGESRDIHYADSVRGRFTISRDNGKHSLYLQMNSLTAEDTAVYFCARGLTNSDLWGQGTLVTVSS
VL: EIVMTQTPLSSPVTLGQPASISCRSSESLVHSNGDTYLSWLHQRPGQPPRLLLYKISNRFSGVPDRFSGSGAGTDFTLTISRVEAEDVGLYYCMQATSFPRTFGQGTKVEIKR
B4: COV_1086 (antibody, V domains shown)
VH: GAQLLESGGALVQPGGSLRLSCAASGFTFNNYGMGWVRQTPGKGLEWVSTINDNGGNTHYADSVKGRFTISRDNSKHTLYLQMNSLRVEDTALYYCAKDVGGPALFEYWGHGTLVTVSS
VL: B1 VL with P12S, E27Q, N33D, S39T, R55K, V56I, F60L, E75D, R97T, V109L
B5: COV_1087 (antibody, V domains shown)
VH: QVQLVQSGAEVQKPGASVKVSCKASGDTFSYHYVHWVRQAPGYGLEWMGIIDPRNADTNYTQKFQGRVTMTTDTSTNTVFLELSSLTSDDTAVYYCARAPDQYFDYWGQGSPVTVSA
VL: B1 VL with R24K, V30L, N33D, K50R, E75D, K79R, R97T, H98Q
B6: COV_1198 (antibody, V domains shown)
VH: EVQLVEAGGDLVQPGGSLRLSCSASGFTFTSYSIHWVRQAPGKGLEYVSTISHGGDITDFADSVKGRFTISRDNSENTVYLQMSSLRPEDTAVYYCARSNFWLDYWGQGTLVTVSS
VL: KIVMTQSPATLSVSPGDSATLSCRASQSVSSNLAWYQQKPGQAPRLLISGAFTRATGIPARFSGSGSGTEFTLTISSLQSEDFAVYYCLQYNNWPLYTFGQGTKLEIKR
B7: COV_2066 (antibody, V domains shown)
VH: QVQLQESGPGLVKPSETLSLTCSVSGFAITNGFDWGWIRQPPRLGLEWIGTVFHTGVTYSNPSLKSRLSTSVDTSKNQFSMTLNSVTAADTGIYYCVRVQSGLEARAMSFFDYWGQGMLVSVSS
VL: DIVMTQSPDSLAVSLGERATINCKSSQNVLYSSNNKNSLAWYQQKPGQPPKVLIYWASTRVSGVPDRFIGSGSGTDFTLTISSLQAEDVAVYYCQQYSSSITFGPGTKVEVKR
B8: COV_2018 (antibody, V domains shown)
VH: QVQLVQSGAEVKKPGSSVKVSCKASGGTSSSYAISWVRQAPGQGLEWIGGIIPIFDTTKYAQKFQGRVTITADESTNTAYMEVSSLRSEDTAVYYCAKVADRVGASTGELDYWGQGTLVTVSS
VL: EVVLTQSPATLSLSPGERGTLSCRASQSISNYLAWYQQKPGQAPRLLIYNASNRATGVPARFSGSGSGTDFTLTISSLEPEDFAVYYCQQRSNWPPWTFGQGTKVEIK
B9: COV_1037 (antibody, V domains shown)
VH: QVQLVESGGGVVQPGRSLRLSCAASGFTFSSYGMHWVRQAPGKGLEWVAVIWYDGSNKYYADSVKGRFTISRDNSKNTLYLQMNSLRAEDTAVYYCARGGYQLLWHYYYYYGMDVWGQGTTVTVSS
VL: not shown
B10: COV_2108 (antibody, V domains shown)
VH: EVQLVESGGGVVQPGRSLRLSCAASGFTFSNYAFHWVRQAPGKGLEWVAVISYDGSIKYSADSVKGRFTISRDNSKNTLYLQMNSLRAEDTAVYYCARDSGDYVDYFDYWGQGTLVTVSS
VL: DIQMTQSPSSLSASVGDRVTITCRASQSISSYLNWYQQKPGKAPKLLIHTTSSLQSGVPSRFSGSGSGTGFTLTISSLQPEDFATYYCQQSYSSPPLTFGGGTKVEIK
B11: COV_1045 (antibody, V domains shown)
VH: B1 VH with F29L, E31D, Y84F
VL: DIVMTQTPLSSPVTLGQPASISCRSSESLVHSNGNTYLSWLQQRPGQPPRLLIYRVSNRFSGVPDRFSGSGAGTEFTLKISRVEAEDVGVYYCMQARHFPRTFGQGTKVEIK
B12: COV_2172 (SEQ ID NO:442/447) (antibody, V domains shown)
VH: EVQLVESGGGVVQPGRSLRLSCAPSGFTFSTYAMHWVRQAPGKGLEWVAVISYDGSIKYYADSVKGRFTISRDNTMNTVFLQMNSLRAEDTAVYFCAKGGERWELFTSFDYWGQGTQVTVSS
VL: QSALTQPRSVSGSPGQSVTISCTGTSSDVGGYNYVSWYQQHPGKAPKLMIYDVSKRPSGVPDRFSGSKSGNTASLTISGLQAEDEADYYCCSYAGSYTFVFGGGTKLTVL
B13: COV_3000 (antibody, V domains shown)
VH: EVQLVESGGGLVQPGRSLRLSCTASGFNFGDNSMSWVRQAPGKGLEWVGFISNRASGGTTEYAASVKGRFTISRDDSKSIAYLQMNSLKTEDTAMYFCTKDSYGHFPNYGFDIWGQGTMVTVSS
VL: AVVMTQTPLSLSVTPGQPASISCKSSQSLIHTDGKTYHYWFLQRPGQPPQLLIYDVSNRVSGVPDRFSGSGSGTDFTLKISRVEADDVGVYYCMHSIQLPRAFGQGTKVEIT
B14: COV_3037 (antibody, V domains shown)
VH: B13 VH with S56Y, T71S, K89R, T121I
VL: B13 VL with A1V
B15: COV_3005 (antibody, V domains shown)
VH: EVQLLGFGGGFIRPGGSLRLSCAASGFSFSSYSMSWVRQGPGNGLEWVAGISDRGNSKTYADSVKGRFTVSRDNSKDMLYLELTNLRVEDSATYFCARDWSQSSSSSSPDYWGPGILVTVSS
VL: DIQMTQSPSAMSAFVGDRVTITCRASLGVNNYLAWYQQRPGKVPRRLIYAASSLQSGVPSRFRGSGSGTQFTLTITGLQPEDSGTYYCLQHGRYPPVFGPGTRVELI
B16: COV_1046 (antibody, V domains shown)
VH: B5 VH with H32S, Y43H, D52N, R54S, A56G, K63N, T72S, N77S, F80L
VL: B11 VL with N33D, E75D, R97K, H98D
B17: COV_3013 (antibody, V domains shown)
VH: EVQLVESGGGLVQPGRSLRLSCTTSGFNFGDNSMSWVRQAPGKGLEWVGFISNKAHGATTEYAASVRGRFTISRDDSKSIVYLQMNSLTTEDTAMYYCIRDSYGHFPSYGFDIWGQGTMVTVSS
VL: B13 VL with A1D, T32S, G34A, H38F, R44K, V60F, D86E, A102T
B18: COV_3019 (antibody, V domains shown)
VH: EVQLVESGGGLVQPGQSLRLSCTTSGFNFGDNSMSWVRQAPGKGLEWVGFISPKSHGETTEYAASVKGRFSISRDDSTSIAYLQMSSLKTEDTAIYYCIRDSYGHFPEYGFDIWGQGTMVTVSS
VL: DVVLTQTPLFLSVTPGQPASISCKSSRSLIHSDGKTYFYWFLQKAGQPPQLLIYEASNRFSGVPDRFSGSGSGTDFTLHISRVEAEDVGIYYCMHSIQLPRTFGQGTKVELT
B19: COV_3028 (antibody, V domains shown)
VH: B18 VH with E58G, I80N, S86T
VL: B18 VL with R27G, S32T
B20: COV_3031 (antibody, V domains shown)
VH: B18 VH with Q16R, P53N, S55A, H56Y, E58G, S71T, S86N, E108D
VL: B18 VL with A45P, H79K, I90V, L111I
B21: COV_3033 (antibody, V domains shown)
VH: EVQMVESGGGFVQPGQSPRLSCLVSGLNFADYAFCWVRQAPGKGPEWIGFISSKLHGGTTHYAASVEGRFIISRDDSKNVVYLQMDNLKAEDSAVYYCTRDSYGYFPEYGFGVWGQGTLVTVSS
VL: EVVLTQTPLSLSVTPGQPASISCRSSQSLVHSDGRTYLYWFLQKPGQPPQPLIYDISSRFSGVPYRFTGSGSGTYFTLRISRVEADDVGVYYCMHSIQLPRAFGQGTKVEIK
B22: COV_3040 (antibody, V domains shown)
VH: B13 VH with E1Q, A24T, V48I, R54K, S56H, E61D, T90A, M95I, F97Y, N108S
VL: DVVMTQTPLSLSVTPGQPASISCKSTQSLVHTDGKTYFYWFLQKPGQPPQLLIYDVSSRFSGVPDRFSGSGSATDFTLRISRVEAEDVGVYYCMHSINFPRTFGQGTKVEIT

biological target: SARS-CoV-2 S on pseudovirions (Wuhan Hu-1 / IL1/2020, last 18 amino acids removed) (SARS-CoV-2, UniProt P0DTC2 14-1273); experiment: cell-based or functional assay

Row | Binder | Mean IC50, pSV neutralization | Mean IC80, pSV neutralization
1 | B1 | ≥ 25 µg/ml | ≥ 25 µg/ml
2 | B2 | ≥ 25 µg/ml | ≥ 25 µg/ml
3 | B3 | ≥ 25 µg/ml | ≥ 25 µg/ml
4 | B4 | ≥ 25 µg/ml | ≥ 25 µg/ml
5 | B5 | ≥ 25 µg/ml | ≥ 25 µg/ml
6 | B6 | ≥ 25 µg/ml | ≥ 25 µg/ml
7 | B7 | ≥ 25 µg/ml | ≥ 25 µg/ml
8 | B8 | 0.31 µg/ml | 1.27 µg/ml
9 | B9 | ≥ 25 µg/ml | ≥ 25 µg/ml
10 | B10 | 13.5 µg/ml | 15.8 µg/ml
11 | B11 | ≥ 25 µg/ml | ≥ 25 µg/ml
12 | B12 | 3.73 µg/ml | ≥ 25 µg/ml
13 | B13 | ≥ 25 µg/ml | ≥ 25 µg/ml
14 | B14 | ≥ 25 µg/ml | ≥ 25 µg/ml
15 | B15 | ≥ 25 µg/ml | ≥ 25 µg/ml
16 | B16 | ≥ 25 µg/ml | ≥ 25 µg/ml
17 | B17 | ≥ 25 µg/ml | ≥ 25 µg/ml
18 | B18 | ≥ 25 µg/ml | ≥ 25 µg/ml
19 | B19 | ≥ 25 µg/ml | ≥ 25 µg/ml
20 | B20 | ≥ 25 µg/ml | ≥ 25 µg/ml
21 | B21 | ≥ 25 µg/ml | ≥ 25 µg/ml
22 | B22 | ≥ 25 µg/ml | ≥ 25 µg/ml
